Assay results: the supplement of paper PMC5998384

Experiments:
HeLa Kyoto [1] = assay: melting temperature (median over replicates), in situ; higher = more thermally stable
HeLa Kyoto [2] = assay: solubility change mitosis vs G1/S (difference of NP-40 vs SDS log2 ratios) (log2 ratio difference); higher = more soluble in mitosis
HeLa Kyoto [3] = assay: solubility in G1/S (NP-40 vs SDS abundance) (log2 ratio); higher = more soluble; conditions: cell cycle stage: G1/S
HeLa Kyoto [4] = assay: thermal stability score vs G1/S (z-score of summed log2 fold changes over temperatures); higher = more thermally stable than in G1/S
[5] = cell cycle stage: early G1 (4.5 h after nocodazole release)
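Wherever melting temperature (median over replicates), in situ is given: HeLa Kyoto cells synchronized by double thymidine or nocodazole block, proteins quantified by TMT10plex mass spectrometry, three independent biological replicates.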
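Wherever solubility change mitosis vs G1/S (difference of NP-40 vs SDS log2 ratios) is given: synchronized HeLa Kyoto cells (double thymidine block for G1/S, nocodazole release for mitosis), protein amounts in NP-40 versus SDS lysates quantified by mass spectrometry, three biological replicates.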
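Wherever solubility in G1/S (NP-40 vs SDS abundance) is given: HeLa Kyoto cells arrested at G1/S by double thymidine block, proteins quantified by TMT10plex mass spectrometry in mild NP-40 versus SDS extracts, three biological replicates.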
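Wherever thermal stability score vs G1/S (z-score of summed log2 fold changes over temperatures) is given: synchronized HeLa Kyoto cells, proteins quantified by TMT10plex mass spectrometry, three biological replicates, mitosis taken 0.5 h after nocodazole release, G1/S directly after double thymidine block.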

Row | Sequence | melting temperature (HeLa Kyoto [1]; cell cycle stage: mitosis) [°C] | solubility change mitosis (log2) (HeLa Kyoto [2]) | solubility in G1/S (log2) (HeLa Kyoto [3]) | thermal stability score (HeLa Kyoto [4]; [5]) | thermal stability score (HeLa Kyoto [4]; cell cycle stage: mitosis) | melting temperature (HeLa Kyoto [1]; cell cycle stage: G1/S) [°C]
1 | MSSAPRSPTPRPRRMKKDESFLGKLGGTLARKRRAREVSDLQEEGKNAINSPMSPALVDVHPEDTQLEENEERTMIDPTSKEDPKFKELVKVLLDWINDVLVEERIIVKQLEEDLYDGQVLQKLLEKLAGCKLNVAEVTQSEIGQKQKLQTVLEAVHDLLRPRGWALRWSVDSIHGKNLVAILHLLVSLAMHFRAPIRLPEHVTVQVVVVRKREGLLHSSHISEELTTTTEMMMGRFERDAFDTLFDHAPDKLSVVKKSLITFVNKHLNKLNLEVTELETQFADGVYLVLLMGLLEDYFVPLHHFYLTPESFDQKVHNVSFAFELMLDGGLKKPKARPEDVVNLDLKSTLRVLYNLFTKYKNVE [PARVB] | 50.4 | -0.137 | 0.0443 | 0.418 | 0.496 | –
2 | MSSIGTGYDLSASTFSPDGRVFQVEYAMKAVENSSTAIGIRCKDGVVFGVEKLVLSKLYEEGSNKRLFNVDRHVGMAVAGLLADARSLADIAREEASNFRSNFGYNIPLKHLADRVAMYVHAYTLYSAVRPFGCSFMLGSYSVNDGAQLYMIDPSGVSYGYWGCAIGKARQAAKTEIEKLQMKEMTCRDIVKEVAKIIYIVHDEVKDKAFELELSWVGELTNGRHEIVPKDIREEAEKYAKESLKEEDESDDDNM [PSMA3] | 56.7 | -0.0697 | 0.204 | -2.57 | -3.19 | 60.7
3 | MSSLHKSRIADFQDVLKEPSIALEKLRELSFSGIPCEGGLRCLCWKILLNYLPLERASWTSILAKQRELYAQFLREMIIQPGIAKANMGVSREDVTFEDHPLNPNPDSRWNTYFKDNEVLLQIDKDVRRLCPDISFFQRATDYPCLLILDPQNEFETLRKRVEQTTLKSQTVARNRSGVTNMSSPHKNSVPSSLNEYEVLPNGCEAHWEVVERILFIYAKLNPGIAYVQGMNEIVGPLYYTFATDPNSEWKEHAEADTFFCFTNLMAEIRDNFIKSLDDSQCGITYKMEKVYSTLKDKDVELYLKLQEQNIKPQFFAFRWLTLLLSQEFLLPDVIRIWDSLFADDNRFDFLLLVCCAMLMLIREQLLEGDFTVNMRLLQDYPITDVCQILQKAKELQDSK [TBC1D13] | 54.1 | -0.145 | 0.0698 | -0.565 | 0.385 | 53.2
4 | MSSLSGKVQTVLGLVEPSKLGRTLTHEHLAMTFDCCYCPPPPCQEAISKEPIVMKNLYWIQKNAYSHKENLQLNQETEAIKEELLYFKANGGGALVENTTTGISRDTQTLKRLAEETGVHIISGAGFYVDATHSSETRAMSVEQLTDVLMNEILHGADGTSIKCGIIGEIGCSWPLTESERKVLQATAHAQAQLGCPVIIHPGRSSRAPFQIIRILQEAGADISKTVMSHLDRTILDKKELLEFAQLGCYLEYDLFGTELLHYQLGPDIDMPDDNKRIRRVRLLVEEGCEDRILVAHDIHTKTRLMKYGGHGYSHILTNVVPKMLLRGITENVLDKILIENPKQWLTFK [PTER] | 57 | -0.0354 | 0.0448 | -2.92 | -0.753 | 56.8
5 | MSSPQAPEDGQGCGDRGDPPGDLRSVLVTTVLNLEPLDEDLFRGRHYWVPAKRLFGGQIVGQALVAAAKSVSEDVHVHSLHCYFVRAGDPKLPVLYQVERTRTGSSFSVRSVKAVQHGKPIFICQASFQQAQPSPMQHQFSMPTVPPPEELLDCETLIDQYLRDPNLQKRYPLALNRIAAQEVPIEIKPVNPSPLSQLQRMEPKQMFWVRARGYIGEGDMKMHCCVAAYISDYAFLGTALLPHQWQHKVHFMVSLDHSMWFHAPFRADHWMLYECESPWAGGSRGLVHGRLWRQDGVLAVTCAQEGVIRVKPQVSESKL [ACOT8] | 53.8 | -0.588 | -0.0523 | 0.114 | -0.515 | 51.9
6 | MSSRIARALALVVTLLHLTRLALSTCPAACHCPLEAPKCAPGVGLVRDGCGCCKVCAKQLNEDCSKTQPCDHTKGLECNFGASSTALKGICRAQSEGRPCEYNSRIYQNGESFQPNCKHQCTCIDGAVGCIPLCPQELSLPNLGCPNPRLVKVTGQCCEEWVCDEDSIKDPMEDQDGLLGKELGFDASEVELTRNNELIAVGKGSSLKRLPVFGMEPRILYNPLQGQKCIVQTTSWSQCSKTCGTGISTRVTNDNPECRLVKETRICEVRPCGQPVYSSLKKGKKCSKTKKSPEPVRFTYAGCLSVKKYRPKYCGSCVDGRCCTPQLTRTVKMRFRCEDGETFSKNVMMIQSCKCNYNCPHANEAAFPFYRLFNDIHKFRD [CYR61] | 54.1 | -0.133 | -0.183 | 5.63 | 3.33 | 52.8
